“And” between values parts separate entries of the source, which are not always exact repeats. Equal entries are not always repeated.
B1: Alpha-amylase, P29957 (parent)
chain: MKLNKIITTAGLSLGLLLPSIATATPTTFVHLFEWNWQDVAQECEQYLGPKGYAAVQVSPPNEHITGSQWWTRYQPVSYELQSRGGNRAQFIDMVNRCSAAGVDIYVDTLINHMAAGSGTGTAGNSFGNKSFPIYSPQDFHESCTINNSDYGNDRYRVQNCELVGLADLDTASNYVQNTIAAYINDLQAIGVKGFRFDASKHVAASDIQSLMAKVNGSPVVFQEVIDQGGEAVGASEYLSTGLVTEFKYSTELGNTFRNGSLAWLSNFGEGWGFMPSSSAVVFVDNHDNQRGHGGAGNVITFEDGRLYDLANVFMLAYPYGYPKVMSSYDFHGDTDAGGPNVPVHNNGNLECFASNWKCEHRWSYIAGGVDFRNNTADNWAVTNWWDNTNNQISFGRGSSGHMAINKEDSTLTATVQTDMASGQYCNVLKGELSADAKSCSGEVITVNSDGTINLNIGAWDAMAIHKNAKLNTSSASSTESDWQRTVIFINAQTQSGQDMFIRGGIDHAYANANLGRNCQTSNFECAMPIRHNNLKNVTTSPWKANDNYLDWYGIENGQSSEAEGSATDWTTNVWPAGWGAEKTVNTDGFGVTPLNIWGEHYWMLDVDMDCSKAVNGWFELKAFIKNGQGWETAIAQDNAPYTSTNHMAQCGKINKFEFNNSGVVIRSF

Variants of: B1
Conditions: Pseudoalteromonas haloplanktis; pH 7.2; Thermal; DSC; MOPS 30 mM; NaCl 50 mM; transition: 3; reversible: yes(95 %); structure 1AQH; whole UniProt chain shown

Variant | unfolding enthalpy (calorimetric) | unfolding enthalpy (van 't Hoff)
M403V | 127 kcal/mol and 84 kcal/mol | 96 kcal/mol and 137 kcal/mol

Same assay, conditions: Pseudoalteromonas haloplanktis; pH 7.2; Thermal; DSC; MOPS 30 mM; NaCl 50 mM; reversible: yes(25 %); structure 1AQH; whole UniProt chain shown

Variant | Tm [°C] | unfolding enthalpy (calorimetric) [kcal/mol] | unfolding enthalpy (van 't Hoff) [kcal/mol]
N36R | 43.3 | 193 | 231

Same assay, conditions: Pseudoalteromonas haloplanktis; pH 7.2; Thermal; DSC; MOPS 30 mM; NaCl 50 mM; reversible: yes(91 %); structure 1AQH; whole UniProt chain shown

Variant | Tm [°C] | unfolding enthalpy (calorimetric) [kcal/mol] | unfolding enthalpy (van 't Hoff) [kcal/mol]
N174D V220F | 46.4 | 272 | 271

Same assay, conditions: Pseudoalteromonas haloplanktis; pH 7.2; Thermal; DSC; MOPS 30 mM; NaCl 50 mM; reversible: yes(96 %); structure 1AQH; whole UniProt chain shown

Variant | Tm [°C] | unfolding enthalpy (calorimetric) [kcal/mol] | unfolding enthalpy (van 't Hoff) [kcal/mol]
R88E | 42.6 | 236 | 112

Same assay, conditions: Pseudoalteromonas haloplanktis; pH 7.2; Thermal; DSC; MOPS 30 mM; NaCl 50 mM; reversible: yes(76 %); structure 1AQH; whole UniProt chain shown

Variant | Tm [°C] | unfolding enthalpy (calorimetric) [kcal/mol] | unfolding enthalpy (van 't Hoff) [kcal/mol]
E303W | 41.4 | 186 | 234

Same assay, conditions: Pseudoalteromonas haloplanktis; pH 7.2; Thermal; DSC; MOPS 30 mM; NaCl 50 mM; reversible: yes(97 %); structure 1AQH; whole UniProt chain shown

Variant | Tm [°C] | unfolding enthalpy (calorimetric) [kcal/mol] | unfolding enthalpy (van 't Hoff) [kcal/mol]
N174D | 44.8 | 271 | 240

Same assay, conditions: Pseudoalteromonas haloplanktis; pH 7.2; Thermal; DSC; MOPS 30 mM; NaCl 50 mM; transition: 3; reversible: yes(51 %); structure 1AQH; whole UniProt chain shown

Variant | Tm [°C] | unfolding enthalpy (calorimetric) [kcal/mol] | unfolding enthalpy (van 't Hoff) [kcal/mol]
Q188I V220F | 44.7 | 83 | 121

Same assay, conditions: Pseudoalteromonas haloplanktis; pH 7.2; Thermal; DSC; MOPS 30 mM; NaCl 50 mM; reversible: yes(81 %); structure 1AQH; whole UniProt chain shown

Variant | Tm [°C] | unfolding enthalpy (calorimetric) [kcal/mol] | unfolding enthalpy (van 't Hoff) [kcal/mol]
L243R | 42.5 | 217 | 187

Same assay, conditions: Pseudoalteromonas haloplanktis; pH 7.2; Thermal; DSC; MOPS 30 mM; NaCl 50 mM; transition: 3; reversible: yes(85 %); structure 1AQH; whole UniProt chain shown

Variant | Tm | unfolding enthalpy (calorimetric) | unfolding enthalpy (van 't Hoff)
T256V | 42.7 °C and 45.7 °C | 102 kcal/mol and 104 kcal/mol | 114 kcal/mol and 202 kcal/mol

Same assay, conditions: Pseudoalteromonas haloplanktis; pH 7.2; Thermal; DSC; MOPS 30 mM; NaCl 50 mM; reversible: yes(60 %); structure 1AQH; whole UniProt chain shown

Variant | Tm [°C] | unfolding enthalpy (calorimetric) [kcal/mol] | unfolding enthalpy (van 't Hoff) [kcal/mol]
V220F | 45.4 | 234 | 296

Same assay, conditions: Pseudoalteromonas haloplanktis; pH 7.2; Thermal; DSC; MOPS 30 mM; NaCl 50 mM; transition: 3; reversible: yes(30 %); structure 1AQH; whole UniProt chain shown

Variant | unfolding enthalpy (calorimetric) | unfolding enthalpy (van 't Hoff)
N312V | 88 kcal/mol and 59 kcal/mol | 133 kcal/mol and 114 kcal/mol

Same assay, conditions: Pseudoalteromonas haloplanktis; pH 7.2; Thermal; DSC; MOPS 30 mM; NaCl 50 mM; transition: 3; reversible: yes(64 %); structure 1AQH; whole UniProt chain shown

Variant | Tm | unfolding enthalpy (calorimetric) | unfolding enthalpy (van 't Hoff)
Q188I | 42.7 °C and 45.2 °C | 87 kcal/mol and 117 kcal/mol | 117 kcal/mol and 240 kcal/mol

Source: FireProtDB (doi:10.1074/jbc.m102741200)
